Test results taken from patent US20240116985A1 (published 2024).
Values belong to the binder of their own block, whether it stands above or below them. Starred links: 1 amine or outer side, 2 acyl side, 3 side chain; linkers in the order of their positions; H or OH if unused. Positions of bridges follow the written chain, without caps; N, C: chain ends. Non-standard residues stand in square brackets, D forms with d. Primed or numbered codes have the meaning given here. PyrS2(3) = (S)-3-amino-1-((pent-4-en-1-yloxy)carbonyl)pyrrolidine-3-carboxylic acid, stapling residue, C=CCCCOC(=O)N1CC[C@@](N[*:1])(C(=O)[*:2])C1; B5(4) = 2,2-bis(4-pentenyl)glycine = 2-amino-2-(pent-4-en-1-yl)hept-6-enoic acid (stitching residue), C=CCCCC(CCCC=C)(N[*:1])C(=O)[*:2]; TfeGA = (S)-2-amino-3-((carboxymethyl)(2,2,2-trifluoroethyl)amino)propanoic acid, O=C([C@H](CN(CC(=O)[*:3])CC(F)(F)F)N[*:1])[*:2]; PyrS2 = (S)-3-amino-1-((pent-4-en-1-yloxy)carbonyl)pyrrolidine-3-carboxylic acid, C=CCCCOC(=O)N1CC[C@@](N[*:1])(C(=O)[*:2])C1; B5″ = 2,2-bis(4-pentenyl)glycine, stitching residue, C=CCCCC(CCCC=C)(N[*:1])C(=O)[*:2]; Phe(3-COOH) = N[C@@H](Cc1cccc(C(=O)O)c1)C(=O)O; Phe(2-CF3) = N[C@@H](Cc1ccccc1C(F)(F)F)C(=O)O; Met(O2) = CS(=O)(=O)CC[C@H](N)C(=O)O; Bta = N[C@@H](Cc1csc2ccccc12)C(=O)O; αAllylPro = C=CC[C@@]1(C(=O)O)CCCN1; tBuAla = CC(C)(C)C[C@H](N)C(=O)O; 3Thi = N[C@@H](Cc1ccsc1)C(=O)O; PyrS2(4) = not defined here

What was measured:
Assay in all cases: cell-based or functional assay
[1] = target: T1, B-cat-Halo (beta-catenin HaloTag construct expressed in HEK293 cells) (UniProt P35222 1-781)
T1 sequence (looked up): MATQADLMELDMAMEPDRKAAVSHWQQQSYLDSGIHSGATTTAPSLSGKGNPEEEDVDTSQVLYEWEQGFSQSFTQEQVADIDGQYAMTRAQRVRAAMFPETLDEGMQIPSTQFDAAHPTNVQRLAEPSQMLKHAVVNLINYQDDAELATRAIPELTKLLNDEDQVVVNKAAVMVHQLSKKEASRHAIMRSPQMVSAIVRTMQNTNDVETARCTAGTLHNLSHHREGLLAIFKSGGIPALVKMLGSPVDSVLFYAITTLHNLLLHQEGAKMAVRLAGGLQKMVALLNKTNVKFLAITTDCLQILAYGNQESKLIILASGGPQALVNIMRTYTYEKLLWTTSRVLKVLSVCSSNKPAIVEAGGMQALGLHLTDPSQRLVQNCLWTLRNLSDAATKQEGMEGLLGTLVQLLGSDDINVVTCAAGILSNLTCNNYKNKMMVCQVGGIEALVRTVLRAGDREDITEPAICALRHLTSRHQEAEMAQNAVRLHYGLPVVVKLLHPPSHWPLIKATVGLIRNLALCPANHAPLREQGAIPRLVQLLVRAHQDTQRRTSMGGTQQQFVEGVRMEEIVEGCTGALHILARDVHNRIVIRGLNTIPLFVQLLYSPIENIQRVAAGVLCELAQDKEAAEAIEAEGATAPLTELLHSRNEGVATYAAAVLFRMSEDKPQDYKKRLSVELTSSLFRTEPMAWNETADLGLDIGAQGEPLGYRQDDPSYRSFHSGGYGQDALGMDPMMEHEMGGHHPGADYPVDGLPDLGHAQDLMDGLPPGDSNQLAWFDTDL

[2] = target: T2, beta-catenin in DLD1 TCF/LEF luciferase reporter cells (UniProt P35222 2-781)
T2 sequence (looked up): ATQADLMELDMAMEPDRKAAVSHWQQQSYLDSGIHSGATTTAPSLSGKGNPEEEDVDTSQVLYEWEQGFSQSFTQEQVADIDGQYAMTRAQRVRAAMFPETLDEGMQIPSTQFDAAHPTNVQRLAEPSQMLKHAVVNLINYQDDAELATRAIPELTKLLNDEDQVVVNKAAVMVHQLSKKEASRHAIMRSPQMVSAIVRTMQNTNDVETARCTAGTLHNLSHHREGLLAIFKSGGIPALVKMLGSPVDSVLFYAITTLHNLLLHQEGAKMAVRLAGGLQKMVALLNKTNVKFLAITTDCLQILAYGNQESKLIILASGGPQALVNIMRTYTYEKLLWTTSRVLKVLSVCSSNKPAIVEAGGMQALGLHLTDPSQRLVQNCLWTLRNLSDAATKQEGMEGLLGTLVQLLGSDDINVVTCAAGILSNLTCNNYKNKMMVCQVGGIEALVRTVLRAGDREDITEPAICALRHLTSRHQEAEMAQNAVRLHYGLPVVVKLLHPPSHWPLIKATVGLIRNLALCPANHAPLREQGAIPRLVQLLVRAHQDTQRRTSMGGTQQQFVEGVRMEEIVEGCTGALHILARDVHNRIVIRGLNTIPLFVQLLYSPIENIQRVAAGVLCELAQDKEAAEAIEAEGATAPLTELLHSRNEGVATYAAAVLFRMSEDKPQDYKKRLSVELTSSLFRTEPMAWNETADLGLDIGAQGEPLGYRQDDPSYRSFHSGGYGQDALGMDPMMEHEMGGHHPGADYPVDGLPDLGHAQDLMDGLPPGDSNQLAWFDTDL

[3] = target: T3, B-cat-Halo (beta-catenin HaloTag construct expressed in HEK293 cells) (UniProt P35222 1-781); remark: listed apart in the source
T3 sequence (looked up): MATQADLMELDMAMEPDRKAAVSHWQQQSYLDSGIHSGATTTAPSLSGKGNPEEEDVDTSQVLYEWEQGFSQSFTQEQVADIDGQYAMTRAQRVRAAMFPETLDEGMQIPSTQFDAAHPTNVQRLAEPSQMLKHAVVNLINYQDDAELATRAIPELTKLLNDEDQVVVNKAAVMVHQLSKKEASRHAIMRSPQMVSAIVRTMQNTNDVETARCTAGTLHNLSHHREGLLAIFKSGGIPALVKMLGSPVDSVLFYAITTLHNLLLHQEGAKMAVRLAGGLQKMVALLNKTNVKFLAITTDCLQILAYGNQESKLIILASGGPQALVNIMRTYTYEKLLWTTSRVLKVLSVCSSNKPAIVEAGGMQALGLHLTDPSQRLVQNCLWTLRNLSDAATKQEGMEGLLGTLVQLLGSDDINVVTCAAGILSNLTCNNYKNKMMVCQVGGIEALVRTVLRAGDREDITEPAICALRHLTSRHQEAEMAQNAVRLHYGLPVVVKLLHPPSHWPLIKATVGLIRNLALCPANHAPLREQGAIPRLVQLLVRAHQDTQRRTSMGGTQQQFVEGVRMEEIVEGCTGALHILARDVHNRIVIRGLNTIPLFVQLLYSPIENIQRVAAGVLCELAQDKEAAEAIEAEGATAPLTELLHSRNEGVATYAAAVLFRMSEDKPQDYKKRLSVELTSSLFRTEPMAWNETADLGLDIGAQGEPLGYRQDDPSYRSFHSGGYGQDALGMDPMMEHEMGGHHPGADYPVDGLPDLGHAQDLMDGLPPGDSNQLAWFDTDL

[4] = target: T4, beta-catenin in DLD1 TCF/LEF luciferase reporter cells (UniProt P35222 1-781)
T4 sequence (looked up): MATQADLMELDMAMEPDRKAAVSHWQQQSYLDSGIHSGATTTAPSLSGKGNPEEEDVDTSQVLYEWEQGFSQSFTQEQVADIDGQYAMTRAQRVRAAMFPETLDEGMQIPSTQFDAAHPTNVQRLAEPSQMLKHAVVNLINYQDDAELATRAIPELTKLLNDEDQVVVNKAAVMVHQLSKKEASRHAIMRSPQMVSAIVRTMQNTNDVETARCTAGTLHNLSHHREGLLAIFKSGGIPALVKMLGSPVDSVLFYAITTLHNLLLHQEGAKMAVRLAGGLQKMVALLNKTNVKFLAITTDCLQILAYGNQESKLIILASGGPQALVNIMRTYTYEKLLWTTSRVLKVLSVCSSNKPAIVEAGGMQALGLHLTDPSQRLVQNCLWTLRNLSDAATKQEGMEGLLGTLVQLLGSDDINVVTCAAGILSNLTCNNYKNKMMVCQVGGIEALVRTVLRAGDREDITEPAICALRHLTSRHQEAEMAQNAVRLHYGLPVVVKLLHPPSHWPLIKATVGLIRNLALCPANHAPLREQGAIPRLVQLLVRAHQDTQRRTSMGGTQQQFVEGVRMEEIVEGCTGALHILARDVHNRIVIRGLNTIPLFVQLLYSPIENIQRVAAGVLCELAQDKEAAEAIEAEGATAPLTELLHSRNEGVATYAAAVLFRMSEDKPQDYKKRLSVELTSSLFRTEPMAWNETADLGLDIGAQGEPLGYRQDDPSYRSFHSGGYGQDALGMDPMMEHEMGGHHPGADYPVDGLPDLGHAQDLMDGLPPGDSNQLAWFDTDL

[5] = target: T5, B-cat-Halo (UniProt P35222 1-781)
T5 sequence (looked up): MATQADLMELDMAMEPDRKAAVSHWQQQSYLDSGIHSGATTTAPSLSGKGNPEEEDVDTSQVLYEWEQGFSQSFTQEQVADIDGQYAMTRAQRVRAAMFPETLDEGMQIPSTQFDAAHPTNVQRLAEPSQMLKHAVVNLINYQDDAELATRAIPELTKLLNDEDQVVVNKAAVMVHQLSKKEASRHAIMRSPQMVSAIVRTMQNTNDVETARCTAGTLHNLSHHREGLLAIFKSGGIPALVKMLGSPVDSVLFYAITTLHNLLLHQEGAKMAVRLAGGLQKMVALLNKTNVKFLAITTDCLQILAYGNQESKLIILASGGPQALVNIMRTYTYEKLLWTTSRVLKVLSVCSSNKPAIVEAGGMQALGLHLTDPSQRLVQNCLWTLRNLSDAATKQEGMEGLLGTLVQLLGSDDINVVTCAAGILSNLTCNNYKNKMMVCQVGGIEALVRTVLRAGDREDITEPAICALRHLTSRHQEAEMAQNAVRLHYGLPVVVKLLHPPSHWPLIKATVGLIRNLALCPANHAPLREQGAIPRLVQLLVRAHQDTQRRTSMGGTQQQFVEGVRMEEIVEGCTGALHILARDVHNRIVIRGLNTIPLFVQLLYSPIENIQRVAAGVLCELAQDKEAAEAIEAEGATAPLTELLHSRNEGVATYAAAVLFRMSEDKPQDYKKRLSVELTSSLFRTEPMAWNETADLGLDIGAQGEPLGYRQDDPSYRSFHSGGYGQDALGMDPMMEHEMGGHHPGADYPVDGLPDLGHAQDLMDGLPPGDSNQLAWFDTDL

- NanoBRET Abs IC50 [1]: 1.9 µM
- DLD1 4% Abs IC50 [2]: 1.8 µM
B1: I-2061 (peptide)
peptide: Ac-[αAllylPro]D[tBuAla][B5(4)]D[Phe(3-COOH)]AAFL[PyrS2(4)][3Thi][Bta][Met(O2)]-NH2
modifications: staple 1-4, 4-11; reading uncertain; also: printed as Ac-PL3-Asp-Npg-B5-Asp-3COOHF-Ala-Ala-Phe-Leu-PyrS2-3Thi-BztA-Met2O-NH2

- NanoBRET Abs IC50 (uM); Bcat-Halo / TCF4-Luc in HEK293 cells [3]: 5.6 µM
- DLD1 4% Abs IC50 (uM); TCF/LEF luciferase reporter assay [4]: 3 µM
B2: I-2521 (peptide)
peptide: Ac-[αAllylPro]D[tBuAla][B5(4)]DXAAFL[PyrS2][Phe(2-CF3)][Bta]S-NH2
modifications: staple 1-4, 4-11; not fully specified (residue 6); printed as Ac-PL3-Asp-Npg-B5-Asp-[CH2CChCO2H]TriAzDap-Ala-Ala-Phe-Leu-PyrS2-2F3MeF-BztA-Ser-NH2

- NanoBRET IC50 [5]: 5 µM
Binder: Ac-[αAllylPro]D[tBuAla][B5″]D[TfeGA]AAFN[PyrS2(3)][3Thi][Bta]Q-NH2 (staple 1-4, 4-11) [I-761]
